# Results reported in patent publication EP4796128A1, “ANTI-C-MET ANTIBODY-DRUG CONJUGATE COMPRISING CAMPTOTHECIN DERIVATIVE” (Celltrion, Inc., priority 2023, dated 2025).
# “And” between values parts separate entries of the source, which are not always exact repeats. Equal values may be shown once.
# B1: P23-PBX-7016: isotype ADC: anti-influenza A antibody (Navivumab, P23) conjugated with mc-GGFG-PBX-7016; DAR 8 (conjugate, chains of the INN, looked up)
# VH: QVQLVQSGAEVKKPGASVKVSCKTSGYSFSTYGVSWVRQAPGQGPEWVGWISAYTGITDYAQKFQGRVTLTTDATTATAFLDLRSLRPDDTATYFCARDKVQGRVEVGSGGRHDYWGQGTLVIVSS
# VL: EVVLTQSPGTLALPPGERATLSCRASHRVGSTYIAWYQQKSGQAPRRLIYGASNRATDIPDRFSGSGSGTDFTLTIRRLEPEDSAVYYCQQFSVSPWTFGQGTRVEIK
# modifications: mc-GGFG-PBX-7016 payload, DAR 8
# What was measured:
# Type in all cases: in vivo, BALB/c nude mice
# [1] = test system: NCI-H441 human lung cancer xenograft; assay: NCI-H441 human lung cancer xenograft model; details: 3 mg/kg i.v. QW × 2 weeks
# Experimental: NCI-H441 tumor cells (ATCC, Catalog No. HTB-174) were maintained in vitro in RPMI 1640 medium supplemented with 10% FBS and 1% antibiotic-antimycotic at 37°C and 5% CO2 in air. Tumor cells NCI-H441 were routinely passaged twice a week by treatment with trypsin-EDTA. The cells with exponential growth were harvested and counted for tumor inoculation.
# Mice were randomly assigned to groups of 10 each, and tumor cells were inoculated into the mice according to the experimental conditions shown in Table 19 below. Specifically, NCI-H441 tumor cells (5 × 10^6 cells/mouse) were subcutaneously inoculated into the right flank of each mouse together with 0.2 mL of PBS containing Matrigel (1:1). Treatment was started on day 14 after inoculation, when the mean tumor volume reached 180 mm^3, and the treatment start date was set as day 0. This experiment was performed for 35 days.
# (§1) Statistical analysis was performed on the data obtained 35 days after the start of the experiment to determine differences in tumor volume and tumor weight between groups. […] All data were analyzed using SPSS 29.0. p < 0.05 was considered statistically significant.
# [2] = test system: Hs746T human gastric cancer xenograft; assay: Hs746T human gastric cancer xenograft model; details: for TGI: Day 13; for T/C: Day 13, tumor volume vs P23 isotype mAb group
# Experimental: Hs746T tumor cells (ATCC, Catalog No. HTB-135) were cultured as a monolayer in DMEM medium supplemented with 10% FBS and 1% antibiotic-antimycotic at 37°C in an atmosphere of 5% CO2 in air. Tumor cells (Hs746T) were routinely passaged three times a week by treating with trypsin-EDTA. The cells with exponential growth were harvested and counted for tumor inoculation.
# Mice were randomly assigned to groups of six each, and tumor cells were inoculated into the mice according to the experimental conditions shown in Table 9 below. Specifically, Hs746T tumor cells (2 × 10^6 cells/mouse) were subcutaneously inoculated into the right flank of each mouse together with 0.1 mL of PBS containing Matrigel. The teatment was started on day 15 after inoculation, when the average tumor volume reached 197 mm^3, and the date when the treatment started was set as Day 0. This experiment was performed for 27 days.
# The experimental endpoints were set when tumor growth stopped or the mice were cured. The size and volume of the tumor were measured twice a week in two and three dimensions using calipers, and these were used to calculate the T/C (tumor volume over control volume) and TGI (tumor growth inhibition) values.
# In the T/C values (%) above, T and C represent the average volume of the experimental group and the control group on a specific day, respectively, and the T/C value is an index for the antitumor effect.
# The TGI values were calculated using the following equation, where Ti is a mean tumor volume of the treatment group on a specific date, T0 is a mean tumor volume of the treatment group on the first day of treatment, Vi is a mean tumor volume of the vehicle control group on the same day as Ti, and V0 is a mean tumor volume of the vehicle group on the first day of treatment. TGI (%) = [1−(Ti−T0)/(Vi−V0)] × 100 [formula]
# All data were analyzed using SPSS 29.0. p < 0.05 was considered statistically significant.
# [3] = test system: LU-01-0439 human lung cancer xenograft; assay: LU-01-0439 human lung cancer xenograft (PDX) model; details: 10 mg/kg i.v. QW × 2 weeks
# Excerpt: It was aimed to confirm the anticancer effect of the ADC of the present invention from the LU-01-0439 human lung cancer xenograft model of BALB/c nude mice (Zhejiang Vital River Laboratory Animal Technology Co., LTD.).
# The lung cancer PDX model of LU-01-0439 was generated by transplanting surgically resected clinical samples into immunodeficient mice and was established as passage 0 (P0). Then, the cells were subcultured through serial transplantation, and the passage after P0 was defined as passage 1 (P1). The tumor recovered from the frozen P2 tumor tissue was designated as FP3, and finally, FP4 tumor tissue was prepared for the experiment.
# Mice were randomly assigned to groups of eight each, and tumors were implanted into the mice according to the experimental conditions shown in Table 14 below. Specifically, LU-01-0439 FP4 tumor fragments (20-30 mm^3) were subcutaneously implanted into the right flank of each mouse. Treatment was started on day 24 after tumor transplantation, when the mean tumor volume reached 175 mm^3, and the treatment start date was set as Day 0. This experiment was performed for 35 days.
# The tumor size was measured using the same method as in Experimental Example 3-1 above.
# as §1
# [4] = Day 35, tumor volume vs P23 isotype mAb group
# [5] = Day 35, tumor weight vs P23 isotype mAb group
molecule,measurement,setting,value
B1,Tumor Volume,"[1]; Day 0, mean ± SEM",180 ± 13 mm^3
same,Tumor Volume,"[1]; Day 4, mean ± SEM",198 ± 16 mm^3
same,Tumor Volume,"[1]; Day 7, mean ± SEM",171 ± 14 mm^3
same,Tumor Volume,"[1]; Day 11, mean ± SEM",140 ± 14 mm^3
same,Tumor Volume,"[1]; Day 14, mean ± SEM",131 ± 14 mm^3
same,Tumor Volume,"[1]; Day 18, mean ± SEM",134 ± 15 mm^3
same,Tumor Volume,"[1]; Day 21, mean ± SEM",138 ± 17 mm^3
same,Tumor Volume,"[1]; Day 25, mean ± SEM",155 ± 20 mm^3
same,Tumor Volume,"[1]; Day 28, mean ± SEM",190 ± 33 mm^3
same,Tumor Volume,"[1]; Day 32, mean ± SEM",235 ± 42 mm^3
same,TGI,[1]; Day 35,91.34%
same,Tumor Weight on Day 35,[1]; Day 35,0.318 ± 0.059 g
same,Tumor Volume,"[1]; Day 35, mean ± SEM",303 ± 54 mm^3
same,T/C,[1]; [4],19.00%
same,T/Cweight,[1]; [5],19.05%
same,Tumor Volume,"[2]; 0.3 mg/kg i.v. single dose, Day 0, mean ± SEM",197 ± 24 mm^3
same,Tumor Volume,"[2]; 0.3 mg/kg i.v. single dose, Day 3, mean ± SEM",309 ± 37 mm^3
same,Tumor Volume,"[2]; 0.3 mg/kg i.v. single dose, Day 6, mean ± SEM",512 ± 87 mm^3
same,Tumor Volume,"[2]; 0.3 mg/kg i.v. single dose, Day 10, mean ± SEM",873 ± 170 mm^3
same,TGI,[2]; 0.3 mg/kg i.v. single dose,26.87%
same,T/C,[2]; 0.3 mg/kg i.v. single dose,76.49%
same,Tumor Volume,"[2]; 0.3 mg/kg i.v. single dose, Day 20, mean ± SEM",2149 ± 475 mm^3
same,Tumor Volume,"[2]; 0.3 mg/kg i.v. single dose, Day 27, mean ± SEM","2,175 ± 874 (n = 3) mm^3"
same,Tumor Volume,"[2]; 1 mg/kg i.v. single dose, Day 0, mean ± SEM",197 ± 24 mm^3
same,Tumor Volume,"[2]; 1 mg/kg i.v. single dose, Day 3, mean ± SEM",298 ± 36 mm^3
same,Tumor Volume,"[2]; 1 mg/kg i.v. single dose, Day 6, mean ± SEM",476 ± 80 mm^3
same,Tumor Volume,"[2]; 1 mg/kg i.v. single dose, Day 10, mean ± SEM",807 ± 171 mm^3
same,TGI,[2]; 1 mg/kg i.v. single dose,27.98%
same,T/C,[2]; 1 mg/kg i.v. single dose,75.52%
same,Tumor Volume,"[2]; 1 mg/kg i.v. single dose, Day 20, mean ± SEM","2,089 ± 416 mm^3"
same,Tumor Volume,"[2]; 3 mg/kg i.v. single dose, Day 0, mean ± SEM",197 ± 23 mm^3
same,Tumor Volume,"[2]; 3 mg/kg i.v. single dose, Day 3, mean ± SEM",281 ± 55 mm^3
same,Tumor Volume,"[2]; 3 mg/kg i.v. single dose, Day 6, mean ± SEM",318 ± 72 mm^3
same,Tumor Volume,"[2]; 3 mg/kg i.v. single dose, Day 10, mean ± SEM",308 ± 80 mm^3
same,TGI,[2]; 3 mg/kg i.v. single dose,84.88%
same,Tumor Volume,"[2]; 3 mg/kg i.v. single dose, Day 13, mean ± SEM",405 mm^3 and 405 ± 125 mm^3
same,T/C,[2]; 3 mg/kg i.v. single dose,25.71%
same,Tumor Volume,"[2]; 3 mg/kg i.v. single dose, Day 17, mean ± SEM",669 ± 192 mm^3
same,Tumor Volume,"[2]; 3 mg/kg i.v. single dose, Day 20, mean ± SEM",826 ± 223 mm^3
same,Tumor Volume,"[3]; Day 0, mean ± SEM",175 ± 15 mm^3
same,Tumor Volume,"[3]; Day 3, mean ± SEM",209 ± 22 mm^3
same,Tumor Volume,"[3]; Day 7, mean ± SEM",238 ± 22 mm^3
same,Tumor Volume,"[3]; Day 10, mean ± SEM",247 ± 19 mm^3
same,Tumor Volume,"[3]; Day 14, mean ± SEM",217 ± 18 mm^3
same,Tumor Volume,"[3]; Day 17, mean ± SEM",217 ± 28 mm^3
same,Tumor Volume,"[3]; Day 21, mean ± SEM",205 ± 42 mm^3
same,Tumor Volume,"[3]; Day 24, mean ± SEM",263 ± 61 mm^3
same,Tumor Volume,"[3]; Day 28, mean ± SEM",393 ± 90 mm^3
same,Tumor Volume,"[3]; Day 31, mean ± SEM",536 ± 117 mm^3
same,TGI,[3]; Day 35,64.62%
same,Tumor Weight on Day 35,[3]; Day 35,0.561 ± 0.117 g
same,Tumor Volume,"[3]; Day 35, mean ± SEM",630 ± 137 mm^3
same,T/C,[3]; [4],43.11%
same,T/C,[3]; [5],42.93%
